For assay [1], the target named is cynomolgus PD-L1, his tagged (cPD-L1-his) (cynomolgus (Macaca fascicularis)) (UniProt G7PSE7). The assay is described as follows: ELISA on coated cPD-L1-his, negative control. In general terms: ELISA stands for enzyme-linked immunosorbent assay.
Assay [2] has as its target human PD-L1, his tagged (hPD-L1-his) (human) (UniProt Q9NZQ7). The assay is described as follows: ELISA on coated hPD-L1-his, negative control.
For assay [3], the target named is human PD-L1 Fc fusion (hPD-L1-Fc) (human) (UniProt Q9NZQ7). The assay is described as follows: blocking ELISA: residual biotin-hPD-1-Fc signal on coated hPD-L1-Fc, negative control.
Sequence of human PD-L1 Fc fusion (hPD-L1-Fc) (human) (Q9NZQ7 19-238 limits assumed): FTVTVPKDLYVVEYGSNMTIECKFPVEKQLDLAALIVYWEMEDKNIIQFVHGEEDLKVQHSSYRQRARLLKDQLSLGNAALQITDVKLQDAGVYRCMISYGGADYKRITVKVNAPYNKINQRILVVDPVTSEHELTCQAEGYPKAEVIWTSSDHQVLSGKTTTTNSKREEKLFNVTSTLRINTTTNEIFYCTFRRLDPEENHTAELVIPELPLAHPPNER

Sequence of human PD-L1, his tagged (hPD-L1-his) (human) (Q9NZQ7 19-238 limits assumed): as above
Sequence of cynomolgus PD-L1, his tagged (cPD-L1-his) (cynomolgus (Macaca fascicularis)) (G7PSE7 entry or part of it limits assumed, form in doubt): as the sequence (Q9NZQ7 19-238 limits assumed) above, with A33T, A34S, S62N, R68Q, Q82R, F173L, T185A, T192I, H215L counted along it

With “NEG (negative control of the hybridoma supernatant screen)”, the A450 in assay [1] came to 0.0348 A450; in assay [2], 0.034 A450. This substance also came in with a Block Residual % in assay [3] of 60%.

The values above are taken from patent US20240067729A1.
